Experimental data as given in patent US20040023887A1 (published 2004).

B1: NNRPγ-4-A9-IR (peptide)
peptide: EGSGFYGYFFSLLGLQG
notes: on phage
B2: 20E2B-4-G11-IGFR (peptide)
peptide: RQGTGSFYLMLEQLLVGARGP
notes: on phage
B3: 20E2B-3-D6-IGFR (peptide)
peptide: DSVGDNFYQLLESLVGGHGVG
notes: on phage
B4: 20E2B-2-B7-IGFR (peptide)
peptide: LSSDGQFYRALNLLLQGSAGR
notes: on phage
B5: 20E2B-3-C4-IGFR (peptide)
peptide: ASSASGFYELLQRLAGLGLEV
notes: on phage
B6: 20C-3-E4-IGFR (peptide)
peptide: FFYRCLSRLLGGQLGSRLGLSCIGD
notes: on phage
B7: NNRPγ-4-A1-IR (peptide)
peptide: IIGGFYSYFNSVLRLGT
notes: on phage
B8: H2CA-4-F6-IGFR (peptide)
peptide: AVRATRFDEAFYDWFVRQISDGQGNK
notes: on phage
B9: 20E2B-4-H8-IGFR (peptide)
peptide: PAGPCGFYCGLGLLLHGDQSP
notes: on phage
B10: 20E2B-4-H9-IGFR (peptide)
peptide: RCQGTGFYTCIQELIGFGDPD
notes: on phage
B11: B6Hα-2-C10-IR (peptide)
peptide: SGAKVIVVTGDSGDPFYHKLSELLQGS
notes: on phage
B12: 20E2A-3-C7-ICFR (peptide)
peptide: VGTVAGFYDAIAQLVARASRV
notes: on phage
B13: 20E2B-1-A8-IGFR (peptide)
peptide: TLRSPTFYDWLEMVLTHGQGG
notes: on phage
B14: NNRPγ-4-A7-IR (peptide)
peptide: RFDPFYSYFVNLLGASA
notes: on phage
B15: B6Hα-3-E8-IR (peptide)
peptide: RGKTAAVIVGRPADPFYHKLSELLQGG
notes: on phage
B16: B6Hα-3-F10-IR (peptide)
peptide: GCVVEWQKWHGASDPFYHKLSELGGCS
notes: on phage
B17: B6Hα-3-E7-IR (peptide)
peptide: GCAVVEEAERSRGDPFYHKLSELIQGC
notes: on phage
B18: H2CA-4-F10-IGFR (peptide)
peptide: VNQSGSIHENFYDWFERQVSHQRGVR
notes: on phage
B19: B6Hα-2-D1-IR (peptide)
peptide: GCEVIVEEGDSADPFYHKLSELCQGS
notes: on phage
B20: 20E2A-3-D10-IGFR (peptide)
peptide: MMVVDGFYDALHQLVVAQSLG
notes: on phage
B21: 20E2A-3-A12-IGFR (peptide)
peptide: LSVALSFYDALGQLVAGEGRW
notes: on phage
B22: B6Hα-4-G8-IR (peptide)
peptide: GGTKAVAKVGTRDDPFYHKLSELLQGS
notes: on phage
B23: B6L-4-D7-IR (peptide)
peptide: AETSVQVGWIRLQSVWPGEHWNTVDPFYHKLSELLRGSGA
notes: on phage
B24: B6Hα-1-A3-IR (peptide)
peptide: SRAKVEAEMPDSGDPFYHKLSELLASG
notes: on phage
B25: H2CA-1-A3-IGFR (peptide)
peptide: APDPSDFQEIFYDWFVRQVSRMPGGG
notes: on phage
B26: H2CA-3-C6-IGFR (peptide)
peptide: SSCDGAGHESFYEWFVRQVSGCRSV
notes: on phage
B27: H2CA-2-B9-IGFR (peptide)
peptide: RAGSSDFHEDFYEWFVRQVSLSLKGK
notes: on phage
B28: H2CA-4-G9-IGFR (peptide)
peptide: GIISQSCPESFYDWFAGQVSDPWWCW
notes: on phage
B29: H2CA-4-H4-IGFR (peptide)
peptide: QAVQPGFHEEFYDWFVRQVSTGVGGG
notes: on phage
B30: E4Dα-4-H2-IR (peptide)
peptide: GFREGNFYEWFQAQVT
notes: on phage
B31: H2CA-4-F7-IGFR (peptide)
peptide: SSIGGGFHENFYDWFSRQLSQSPPLK
notes: on phage
B32: H2CA-3-D6-IGFR (peptide)
peptide: QSPVGSSHEDFYDWFFRQVAQSGAHQ
notes: on phage
B33: H2CA-3-D8-IGFR (peptide)
peptide: NYRRQVFNGNFYDWFDRQVFSLVTPG
notes: on phage
B34: H2CA-4-G11-IGFR (peptide)
peptide: TLDGGSFEEQFYDWFVRQLSYRTNPD
notes: on phage
B35: H2CA-4-F1-IGFR (peptide)
peptide: FYVQQWGHENFYDWFDRQVSQSGGAG
notes: on phage
B36: H2CA-3-D7-IGFR (peptide)
peptide: LRRQAPVEENFYDWFVRQVSGDRVGG
notes: on phage
B37: H2CA-1-A7-IGFR (peptide)
peptide: RCGRELYHSTFYDWFDRQVAGRTCPS
notes: on phage
B38: H2CA-2-B4-IGFR (peptide)
peptide: CCLLCRFQQNFYDWFVCQGISRLRPL
notes: on phage
B39: H2CA-2-B3-IGFR (peptide)
peptide: PPLASDLDVQFYGWFVQQVSPPGRGG
notes: on phage

What follows are binders tested against T1, soluble IGF-1R (recombinant human IGF-1R extracellular domain, R&D Systems Cat. # 391-GR/CF) (human, UniProt P08069 31-935) (assay: phage ELISA).
T1 construct: extracellular domain; Bought protein; coated on plates (phage ELISA, TRF) or Eu-labelled (TR-FRET); also called sIGF-1R; rhIGF-1R

Binder | ratio over background
B1 | 10 ratio
B2 | 4.5 ratio
B3 | 17.8 ratio
B4 | 6.1 ratio
B5 | 20.4 ratio
B6 | 7.7 ratio
B7 | 10.9 ratio
B8 | 7.3 ratio
B9 | 5.3 ratio
B10 | 5.2 ratio
B11 | 5.8 ratio
B12 | 5.4 ratio
B13 | 4.4 ratio
B14 | 6.3 ratio
B15 | 5.3 ratio
B16 | 8.8 ratio
B17 | 5.6 ratio
B18 | 5.7 ratio
B19 | 5.4 ratio
B20 | 6.9 ratio

Binder | ratio over background
B21 | 4.3 ratio
B22 | 6.1 ratio
B23 | 4.8 ratio
B24 | 2.6 ratio
B25 | 3.8 ratio
B26 | 5.6 ratio
B27 | 7 ratio
B28 | 9.5 ratio
B29 | 4.1 ratio
B30 | 33.9 ratio
B31 | 3.2 ratio
B32 | 9 ratio
B33 | 7.2 ratio
B34 | 9.5 ratio
B35 | 3.5 ratio
B36 | 3 ratio
B37 | 2.2 ratio
B38 | 4.1 ratio
B39 | 3.8 ratio

The binders below were run against T2, soluble human insulin receptor-immunoglobulin heavy chain chimera (human, UniProt P06213 28-956, limits assumed) (assay: phage ELISA).
T2 construct: extracellular domain; also called sIR-Fc; IR (prepared according to Bass et al., 1996); not shown: immunoglobulin heavy chain constant domains (Bass et al., 1996)

Binder | ratio over background
B1 | 1.4 ratio
B2 | 0.6 ratio
B3 | 2.6 ratio
B4 | 0.9 ratio
B5 | 3.3 ratio
B6 | 1.3 ratio
B7 | 1.8 ratio
B8 | 1.1 ratio
B9 | 0.9 ratio
B10 | 0.9 ratio
B11 | 1.1 ratio
B12 | 1.1 ratio
B13 | 0.9 ratio
B14 | 1.3 ratio
B15 | 1.1 ratio
B16 | 1.9 ratio
B17 | 1.3 ratio
B18 | 1 ratio
B19 | 1.3 ratio
B20 | 1.8 ratio

Binder | ratio over background
B21 | 1.1 ratio
B22 | 1.7 ratio
B23 | 1.4 ratio
B24 | 0.8 ratio
B25 | 0.8 ratio
B26 | 1.2 ratio
B27 | 1.7 ratio
B28 | 0.6 ratio
B29 | 1 ratio
B30 | 8.2 ratio
B31 | 0.8 ratio
B32 | 2.2 ratio
B33 | 1.8 ratio
B34 | 2.5 ratio
B35 | 0.9 ratio
B36 | 0.8 ratio
B37 | 0.6 ratio
B38 | 1.1 ratio
B39 | 1 ratio
